Data as given in publication PMC11054894, “Sortase-Modified Cholera Toxoids Show Specific Golgi Localization” (Toxins, 2024).

Assays:
Test in all cases: SDS-PAGE without boiling
[1] = target: FITC-labeled cholera toxin B (sortase-labeled GGG-CTB) (UniProt P01556)
[2] = target: cholera toxin B with an N-terminal triglycine extension (UniProt P01556)
[3] = target: the molecule itself

In the case of “FITC-labeled cholera toxin B (sortase-labeled GGG-CTB) (from UniProt P01556 22-124) (natural protein)”, the stoichiometry N [1] is reported as 5.

“cholera toxin B with an N-terminal triglycine extension (from UniProt P01556 22-124) (natural protein)” was tested, and the stoichiometry N [2] was 5.

B1: cholera toxin B-subunit (natural protein)
chain: TPQNITDLCAEYHNTQIYTLNDKIFSYTESLAGKREMAIITFKNGAIFQVEVPGSQHIDSQKKAIERMKDTLRIAYLTEAKVEKLCVWNNKTPHAIAAISMAN
notes: also called B5; B5 pentamer
In the case of B1, the “stoichiometry N” value [3] is reported as 5.
